The text below walks through data of patent US20090202437A1 (UMC UTRECHT HOLDING B V, published 2009).

The assay deals with T1, recombinant human MASP-2 (consisting of the two complement control regions and the serine protease domain) (human, UniProt O00187 298-686).
T1 construct: domain: the two complement control regions and the serine protease domains; also called rMASP-2; MBL associated serine protease-2
The assay is described as follows: size-exclusion chromatography (Superose-6) of 125I-labelled rLPI incubated with rMASP-2.

T1 sequence (O00187 298-686 limits assumed): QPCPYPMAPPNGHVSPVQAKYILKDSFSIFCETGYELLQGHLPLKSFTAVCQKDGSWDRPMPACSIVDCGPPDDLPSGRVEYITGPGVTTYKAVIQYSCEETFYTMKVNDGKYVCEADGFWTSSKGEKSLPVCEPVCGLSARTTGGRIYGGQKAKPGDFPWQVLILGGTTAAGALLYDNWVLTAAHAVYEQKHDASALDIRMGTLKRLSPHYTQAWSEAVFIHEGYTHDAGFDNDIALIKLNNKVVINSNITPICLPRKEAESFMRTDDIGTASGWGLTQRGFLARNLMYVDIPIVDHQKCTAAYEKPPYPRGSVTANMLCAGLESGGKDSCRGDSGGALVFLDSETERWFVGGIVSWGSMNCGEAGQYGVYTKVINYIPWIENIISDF

B1: recombinant LPI (Lectin Pathway Inhibitor) of Staphylococcus aureus (other)
chain: STSLPTSNEYQNEKLANELKSLLDELNVNELATGSLNTYYKRTIKISGQKAMYALKSKDFKKMSEAKYQLQKIYNEIDEALKSKY
notes: also called rLPI; 125I-LPI
With B1, the binding result is given as “binds”.
